Here are results for one molecule from patent publication US5863776A, “Method of preparing apoenzyme” (Research Development Foundation, priority 1996, dated 1999).

Experiment [1] has as its target T1, MAO B (Homo sapiens, UniProt P27338, E34D).
T1 construct: expressed in transfected cells; host or cells: Rib+ COS-7, transient
T1 sequence (P27338 2-520 E34D): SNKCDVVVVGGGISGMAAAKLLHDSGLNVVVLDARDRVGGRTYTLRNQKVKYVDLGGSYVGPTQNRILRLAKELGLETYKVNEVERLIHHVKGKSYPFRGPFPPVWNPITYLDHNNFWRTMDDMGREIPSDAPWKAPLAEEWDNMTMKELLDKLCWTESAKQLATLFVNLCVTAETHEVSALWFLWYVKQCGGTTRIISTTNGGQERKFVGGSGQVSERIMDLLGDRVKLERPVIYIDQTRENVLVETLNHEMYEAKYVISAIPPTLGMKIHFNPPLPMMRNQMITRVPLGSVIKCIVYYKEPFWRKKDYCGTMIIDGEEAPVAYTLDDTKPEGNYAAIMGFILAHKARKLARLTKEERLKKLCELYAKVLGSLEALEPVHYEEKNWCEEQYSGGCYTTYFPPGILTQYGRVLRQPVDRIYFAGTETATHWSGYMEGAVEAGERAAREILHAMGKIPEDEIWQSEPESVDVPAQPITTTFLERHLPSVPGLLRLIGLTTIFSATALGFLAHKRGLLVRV
The note with it: cited from earlier work.

The target in experiment [2] is T1, MAO B. As to the kind of experiment: [^14 C] FAD incorporation into wild-type or mutant MAO B in Rib^- COS-7 cells (immunoprecipitation, fluorography). The note with it: densitometer. The experiment is classed as binding. Here is the method: (§1) Mutagenesis was carried out by the method of Deng and Nickoloff (22) using a Transformer Site-directed Mutagenesis kit (Clontech). Glu in position 34 was replaced with Asp (E34D), Gln (E34Q), or Ala (E34A), and Val in position 10 was replaced with Ile (V10I) as described by Kwan et al. (18).
(§2) Wild-type or mutant MAO B cDNAs were transiently transfected into COS-7 cells by electroporation (23) as previously described (18). Briefly, Rib^+ - or Rib^- COS-7 cells were harvested during late log phase growth and resuspended to a concentration of 3.1×10^6 cells/ml in either riboflavin-containing or riboflavin-free medium, respectively. Wild-type or mutant MAO B cDNAs ([…]) were added to 0.8 ml of cell suspension. […] Electroporation was carried out in a Bio-Rad Gene Pulser with a setting of 250 V and 500 μF. Cells were resuspended in 15 ml of riboflavin-containing or riboflavin-free medium and incubated at 37° C. with 5% CO2. Transfected COS-7 cells were harvested at 48 hours and homogenized in a lysis solution containing 20 mM Tris-HCl, 1 mM EDTA, 0.5 mM PMSF, pH 8.0. The homogenate was diluted with an equal volume of the same buffer supplemented with 300 mM NaCl to obtain a 150 mM final NaCl concentration. Triton X-100 (Pierce) was added to the lysate to give a final concentration of 0.25%, and the samples were allowed to stir for 50 min. at 4° C. to extract MAO B from the outer mitochondrial membrane. After Triton extraction, the lysate was centrifuged at 1300×g for 5 min. at 4° C. to remove insoluble cell debris.
(§3) Transfected Rib^+ - or Rib^- COS-7 cells were homogenized, and extracted with 0.25% Triton X-100 for 50 minutes at 4° C. The cell lysates were centrifuged at 1300×g for 5 minutes, and an aliqout of each supernatant was analyzed for MAO B concentration by ELISA. All supernatants were then adjusted to equal MAO B concentration and incubated with polyclonal goat anti-MAO B antibody (10 μg) overnight at 4° C. Protein-G Sepharose beads (Pierce) were added (50 μl) and incubation was continued for 3 hours. The protein-G Sepharose/goat antibody/MAO B immmunocomplex was collected by centrifugation at 10,000×g for 20 seconds and washed 6 times with 150 μl of 20 mM Tris buffer, pH 8.0. The immunocomplex was then dissolved in SDS-PAGE sample buffer and analyzed by Western blot or fluorography.
(§4) The immunoprecipitated proteins (obtained as described above) were subjected to electrophoresis in a 10% SDS-polyacrylamide gel and examined by Western blotting as previously described (18). The immunoprecipitated proteins (obtained as described above) were subjected to electrophoresis in a 10% SDS-polyacrylamide gel. The SDS-PAGE gel was fixed by soaking in 7% acetic acid, 10% methanol, 83% H2 O for 1 hour, and then processed for fluorography as described by Bonner and Laskey (27). The dried gel was exposed to Kodak X-OMAT AR film at -80° C. for 2 weeks.
(§5) The expressed wild-type and variant MAO Bs were adjusted to equal concentrations using ELISA before immunoprecipitation, and then analyzed by fluorography. The amount of incorporation of [^14 C] […] FAD was incorporated into the enzyme.

The subject of experiment [3] is MAO B. The experiment is described as above. The experiment is classed as binding, human. The note with it: about 59 kDa; equal MAO B concentrations. The procedure:
as §1, §2, §3, §4, §5

B1: E34D: MAO B with Glu in position 34 replaced with Asp (protein, UniProt P27338 2-520, looked up, variant E34D)
Amine oxidase …: T1 sequence (P27338 2-520 E34D)
For B1, the reduction in activity with MAO B [1] (Rib^+ COS-7 cells) is listed as 93%. Further, the “activity, % of wild-type activity” value with MAO B [1] is 7%. For the same molecule, the “[^14 C] FAD incorporation, percent of wild-type” value with MAO B [2] is listed as “about 10%”. In addition, the “[^14 C] FAD incorporation (band on fluorogram)” value in the experiment on MAO B [3] is “faint band”.
